Sequences and labels used below:
B1: NKp30-Ig fusion protein (Fc fusion, human, UniProt O14931 19-135, looked up, not shown: a dimerising Fc or GST)
chain: LWVSQPPEIRTLEGSSAFLPCSFNASQGRLAIGSVTWFRDEVVPGKEVRNGTPEFRGRLAPLASSRFLHDHQAELHIRDVRGHDASIYVCRVEVLGLGVGTGNGTRLVVEKEHPQLG
B2: CD99-Ig fusion protein (Fc fusion)
chain: DGGFDLSDALPDNENKKPTAIPKKPSAGDDFDLGDAVVDGENDDPRPPNPPKPMPNPNPNHPSSSGSFSDADLADGVSGGEGKGGSDGGGSHRKEGEEAD

The first assay concerns the target rosettes of HA from X31 (A/Aichi/2/68xpr/8/34) H3N2 influenza virus (influenza A virus X31 …, UniProt P03437 17-520). Kind of assay: ELISA, plates coated with HA rosettes. (In general: In an ELISA, binding on a coated surface is turned into a signal by an enzyme label.)
On to B1, for which the binding result was “no binding”.

A further assay addresses HA of influenza virus X-127 (H1N1) on infected cells (influenza A virus X-127 (H1N1)).
Experiment: not given
Consider “NKp46D1-Ig fusion protein (membrane distal domain of NKp46 fused to Fc of human IgG1) (from UniProt O76036 22-120) (Fc fusion)”, for which the MFI was 5.

Turning to “NKp46-Ig fusion protein (from UniProt O76036 22-254) (Fc fusion)”, the MFI turned out to be 107.

In turn, “NKp44-Ig fusion protein (from UniProt O95944 22-190) (Fc fusion)” gave an MFI of 220.

Consider “NKp30-Ig fusion protein (from UniProt O14931 19-135) (Fc fusion)”, for which the MFI is 6.

As for “NKp46D2-Ig fusion protein produced in COS cells (membrane proximal domain of NKp46 fused to Fc of human IgG1) (from UniProt O76036 121-254) (Fc fusion)”, the MFI worked out at 160.

B2 yielded an MFI of 1.

These data come from US20070203054A1 (YISSUM RESEARCH DEVELOPMENT COMPANY OF THE HEBREW …, published 2007).
